The source of these data is patent US20170015742A1 (published 2017).

B1: hBDI-5H1.1 (antibody, V domains shown)
VH: EVTLRESGPALVKPTQTLTLTCTFSGFSLSTFGMGVGWIRQPPGKALEWLANIWWDDDKYYNPSLKNRLTISKDTSKNQVVLTMTNMDPVDTATYYCARISTGISSYYVMDAWGQGTTVTVSS
VL: NFMLTQPHSVSESPGKTVTISCERSSGDIGDTYVSWYQQRPGSSPTTVIYGNDQRPSGVPDRFSGSIDSSSNSASLTISGLKTEDEADYYCQSYDSDIDIVFGGGTKLTVL
B2: hBDI-9E8.12 (antibody, V domains shown)
VH: EVQLVESGGGLVQPGGSLRLSCAFSGFSLSTYGMGVGWIRQAPGKGLEWLANIWWDDDKYYNPSLKNRLTISKDTSKNQAYLQINSLRAEDTAVYYCARIESIGTTYSFDYWGQGTLVTVSS
VL: DFQLTQSPSSLSASVGDRVTITCERSSGDIGDSYVSWYQQKPGKAPKNVIYADDQRPSGVPSRFSGSGSGNSASLTISSLQPEDFATYYCQSYDINIDIVFGQGTKVEIK
B3: hBDI-9E8.3 (antibody, V domains shown)
VH: EVTLRESGPALVKPTQTLTLTCTFSGFSLSTYGMGVGWIRQPPGKALEWLANIWWDDDKYYNPSLKNRLTISKDTSKNQVVLTMTNMDPVDTATYYCARIESIGTTYSFDYWGQGTMVTVSS
VL: EIVLTQSPGTLSLSPGERATLSCERSSGDIGDSYVSWYQQKPGQAPRLLIYADDQRPSGIPDRFSGSGSGTDFTLTISRLEPEDFAVYYCQSYDINIDIVFGGGTKVEIK
B4: hBDI-9E8.10 (antibody, V domains shown)
VH: EVTLRESGPALVKPTQTLTLTCTFSGFSLSTYGMGVGWIRQPPGKALEWLANIWWDDDKYYNPSLKNRLTISKDTSKNQAVLTITNMDPVDTATYYCARIESIGTTYSFDYWGQGTTVTVSS
VL: DFQLTQSPSSLSASVGDRVTITCERSSGDIGDSYVSWYQQKPGKAPKNVIYADDQRPSGVPSRFSGSGSGNSASLTISSLQPEDFATYYCQSYDINIDIVFGQGTKVEIK
B5: hBDI-9E8.4 half body (other)
VH: EVTLRESGPALVKPTQTLTLTCTFSGFSLSTYGMGVGWIRQPPGKALEWLANIWWDDDKYYNPSLKNRLTISKDTSKNQVVLTMTNMDPVDTATYYCARIESIGTTYSFDYWGQGTMVTVSS
VL: EFVLTQSPGTLSLSPGERATLSCERSSGDIGDSYVSWYQQKPGQAPRLVIYADDQRPSGIPDRFSGSGSGTDFTLTISRLEPEDFAVYYCQSYDINIDIVFGGGTKVEIK
B6: hBDI-9E8.9 (antibody, V domains shown)
VH: EVTLRESGPALVKPTQTLTLTCTFSGFSLSTYGMGVGWIRQPPGKALEWLANIWWDDDKYYNPSLKNRLTISKDTSKNQAVLTITNMDPVDTATYYCARIESIGTTYSFDYWGQGTTVTVSS
VL: DFVLTQSPDSLAVSLGERATINCERSSGDIGDSYVSWYQQKPGQPPKNVIYADDQRPSGVPDRFSGSGSGNSASLTISSLQAEDVAVYFCQSYDINIDIVFGGGTKVEIK
B7: hBDI-9E8.7 (antibody, V domains shown)
VH: EVTLRESGPALVKPTQTLTLTCTFSGFSLSTYGMGVGWIRQPPGKGLEWLANIWWDDDKYYNPSLKNRLTISKDTSKNQAVLTITNMDPVDTATYYCARIESIGTTYSFDYWGQGTMVTVSS
VL: EIVLTQSPGTLSLSPGERATLSCERSSGDIGDSYVSWYQQKPGQAPRLLIYADDQRPSGIPDRFSGSGSGTDFTLTISRLEPEDFAVYYCQSYDINIDIVFGGGTKVEIK
B8: hBDI-9E8.8 (antibody, V domains shown)
VH: EVTLRESGPALVKPTQTLTLTCTFSGFSLSTYGMGVGWIRQPPGKGLEWLANIWWDDDKYYNPSLKNRLTISKDTSKNQAVLTITNMDPVDTATYYCARIESIGTTYSFDYWGQGTMVTVSS
VL: EFVLTQSPGTLSLSPGERATLSCERSSGDIGDSYVSWYQQKPGQAPRLVIYADDQRPSGIPDRFSGSGSGTDFTLTISRLEPEDFAVYYCQSYDINIDIVFGGGTKVEIK

The target in the experiment is recombinant human PDGF-BB (human, UniProt P01127 82-190). Briefly: cell-based or functional assay.
Chain of recombinant human PDGF-BB (P01127 82-190 limits assumed): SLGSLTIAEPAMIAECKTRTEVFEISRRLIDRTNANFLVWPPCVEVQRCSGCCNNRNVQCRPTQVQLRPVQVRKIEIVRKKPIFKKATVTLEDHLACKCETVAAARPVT
As for B1, the “hPDGF-BB IC50 (nM), hPDGF-BB-induced NIH-3T3 cell proliferation” value (from here on “hPDGF-BB IC50 (nM)”) is less than 10 nM.

B2: the “hPDGF-BB IC50 (nM)” value is 0.525 nM.

For B3, the “hPDGF-BB IC50 (nM)” value came to 1.58 nM.

As for B4, the “hPDGF-BB IC50 (nM)” value worked out at 0.562 nM.

Consider B5, for which the “hPDGF-BB IC50 (nM)” value was greater than 5 nM.

Consider B6, for which the “hPDGF-BB IC50 (nM)” value was 0.574 nM.

Regarding B7, the “hPDGF-BB IC50 (nM)” value is 0.35 nM.

Consider B8, for which the “hPDGF-BB IC50 (nM)” value turned out to be 0.105 nM.
